Laboratory results reported in patent publication US20130331333A1 (HADASIT MEDICAL RESEARCH SERVICES AND DEVELOPMENT, published 2013).

T1: Shc adaptor protein (66, 52 and 46 kDa isoforms) (human, UniProt P29353 1-583, limits assumed)
T1 construct: Full-length endogenous protein in cell lysates; three isoforms detected together; also called Shc adapter protein
T1 sequence (looked up): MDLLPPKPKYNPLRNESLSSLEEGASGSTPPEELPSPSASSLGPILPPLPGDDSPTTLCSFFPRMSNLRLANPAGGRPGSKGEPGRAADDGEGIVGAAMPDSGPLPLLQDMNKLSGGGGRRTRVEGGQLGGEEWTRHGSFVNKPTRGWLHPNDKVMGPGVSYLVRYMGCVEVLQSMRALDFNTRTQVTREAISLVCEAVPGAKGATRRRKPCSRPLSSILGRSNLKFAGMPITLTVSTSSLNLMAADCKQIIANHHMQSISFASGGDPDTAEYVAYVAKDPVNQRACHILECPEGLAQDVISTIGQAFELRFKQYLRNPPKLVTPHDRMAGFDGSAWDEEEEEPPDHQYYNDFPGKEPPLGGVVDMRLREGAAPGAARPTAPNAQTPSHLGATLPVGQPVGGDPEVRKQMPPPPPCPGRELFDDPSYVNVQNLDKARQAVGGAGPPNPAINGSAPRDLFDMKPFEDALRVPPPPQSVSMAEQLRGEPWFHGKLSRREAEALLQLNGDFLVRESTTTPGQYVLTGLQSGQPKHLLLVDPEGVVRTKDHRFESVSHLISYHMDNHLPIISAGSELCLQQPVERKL


Target: T1, Shc adaptor protein (66, 52 and 46 kDa …)
Assay: association of Shc with PAR1 Y/A mutants (method not detailed)

Row | binding result | Binder
1 | binds | Y381A hPar1 (receptor, human, UniProt P25116 42-425, looked up, whole, on cells; also called hPar1-Y381A) SFLLRNPNDKYEPFWEDEEKNESGLTEYRLVSINKSSPLQKQLPAFISEDASGYLTSSWLTLFVPSVYTGVFVVSLPLNIMAIVVFILKMKVKKPAVVYMLHLATADVLFVSVLPFKISYYFSGSDWQFGSELCRFVTAAFYCNMYASILLMTVISIDRFLAVVYPMQSLSWRTLGRASFTCLAIWALAIAGVVPLLLKEQTIQVPGLNITTCHDVLNETLLEGYYAYYFSAFSAVFFFVPLIISTVCYVSIIRCLSSSAVANRSKKSRALFLSAAVFCIFIICFGPTNVLLIAHYSFLSHTSTTEAAYFAYLLCVCVSSISCCIDPLIYYYASSECQRAVYSILCCKESSDPSSYNSSGQLMASKMDTCSSNLNNSIYKKLLT
2 | binds | Y383A hPar1 (receptor, human, UniProt P25116 42-425, looked up, whole, on cells) SFLLRNPNDKYEPFWEDEEKNESGLTEYRLVSINKSSPLQKQLPAFISEDASGYLTSSWLTLFVPSVYTGVFVVSLPLNIMAIVVFILKMKVKKPAVVYMLHLATADVLFVSVLPFKISYYFSGSDWQFGSELCRFVTAAFYCNMYASILLMTVISIDRFLAVVYPMQSLSWRTLGRASFTCLAIWALAIAGVVPLLLKEQTIQVPGLNITTCHDVLNETLLEGYYAYYFSAFSAVFFFVPLIISTVCYVSIIRCLSSSAVANRSKKSRALFLSAAVFCIFIICFGPTNVLLIAHYSFLSHTSTTEAAYFAYLLCVCVSSISCCIDPLIYYYASSECQRYVASILCCKESSDPSSYNSSGQLMASKMDTCSSNLNNSIYKKLLT
3 | binds | Y381A & Y383A hPar1 double mutant (receptor, human, UniProt P25116 42-425, looked up, whole, on cells; also called Y381A&383A hPar1) SFLLRNPNDKYEPFWEDEEKNESGLTEYRLVSINKSSPLQKQLPAFISEDASGYLTSSWLTLFVPSVYTGVFVVSLPLNIMAIVVFILKMKVKKPAVVYMLHLATADVLFVSVLPFKISYYFSGSDWQFGSELCRFVTAAFYCNMYASILLMTVISIDRFLAVVYPMQSLSWRTLGRASFTCLAIWALAIAGVVPLLLKEQTIQVPGLNITTCHDVLNETLLEGYYAYYFSAFSAVFFFVPLIISTVCYVSIIRCLSSSAVANRSKKSRALFLSAAVFCIFIICFGPTNVLLIAHYSFLSHTSTTEAAYFAYLLCVCVSSISCCIDPLIYYYASSECQRAVASILCCKESSDPSSYNSSGQLMASKMDTCSSNLNNSIYKKLLT
